Columns and labels:
HER2-ECD-Fc [1] = target: T1, HER2-ECD-Fc (human, UniProt P04626 23-652); test: ELISA on HER2-ECD-Fc; antibody at 5 × 10^-2 µg/mL
T1 construct: extracellular domain; Produced in FreeStyle 293F cells; also called HER2-ECD Fc fusion protein

HER2-ECD-Fc [2] = target: T1, HER2-ECD-Fc; test: ELISA on HER2-ECD-Fc; antibody at 5 × 10^-4 µg/mL
HER2-ECD-Fc [3] = target: T1, HER2-ECD-Fc; test: ELISA on HER2-ECD-Fc; antibody at 5 × 10^-5 µg/mL
HER2-ECD-Fc [4] = target: T1, HER2-ECD-Fc; test: ELISA on HER2-ECD-Fc; antibody at 5 × 10^-6 µg/mL
HER2-ECD-Fc [5] = target: T1, HER2-ECD-Fc; test: ELISA on HER2-ECD-Fc; antibody at 5 × 10^-7 µg/mL
HER2-ECD-Fc [6] = target: T1, HER2-ECD-Fc; test: ELISA on HER2-ECD-Fc; antibody at 5 µg/mL
HER2-ECD-Fc [7] = target: T1, HER2-ECD-Fc; test: ELISA on HER2-ECD-Fc; antibody at 50 µg/mL
[8] = target: T2, HER4 (R&D Systems, #1131-ER-050) (human, UniProt Q15303 26-651); test: ELISA on ErbB family extracellular domains, Absorbance at 450 nm; antibody concentration not given
T2 construct: extracellular domain; Bought
T2 sequence (looked up): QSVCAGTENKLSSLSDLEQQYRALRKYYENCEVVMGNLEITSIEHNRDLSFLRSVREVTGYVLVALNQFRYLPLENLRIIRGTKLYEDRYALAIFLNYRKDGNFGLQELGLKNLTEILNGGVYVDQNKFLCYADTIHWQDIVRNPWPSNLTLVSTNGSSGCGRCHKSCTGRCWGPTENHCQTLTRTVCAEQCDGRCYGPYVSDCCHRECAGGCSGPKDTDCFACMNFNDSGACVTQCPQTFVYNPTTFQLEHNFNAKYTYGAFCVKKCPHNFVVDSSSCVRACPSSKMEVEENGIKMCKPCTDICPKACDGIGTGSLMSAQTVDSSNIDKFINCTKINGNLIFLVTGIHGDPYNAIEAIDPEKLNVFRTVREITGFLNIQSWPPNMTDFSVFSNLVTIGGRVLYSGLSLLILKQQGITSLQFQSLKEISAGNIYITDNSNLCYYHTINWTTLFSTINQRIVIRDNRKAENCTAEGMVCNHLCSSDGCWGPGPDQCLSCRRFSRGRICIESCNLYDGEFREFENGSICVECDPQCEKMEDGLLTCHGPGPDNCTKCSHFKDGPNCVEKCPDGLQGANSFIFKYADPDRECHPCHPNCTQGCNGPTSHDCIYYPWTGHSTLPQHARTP
Description: (§1) It was investigated whether the developed five antibodies of the present disclosure specifically bind to HER2 belonging to the ErbB family proteins by ELISA.

EGFR-ECD-Fc = target: T3, EGFR-ECD-Fc (human, UniProt P00533 25-645); test: as above
T3 construct: extracellular domain; also called extracellular domain of EGFR; not shown: Hinge and Fc region (CH2-CH3) of human IgG1; The protein was produced in the same manner as HER2-ECD-Fc
Description: as §1

[9] = target: T4, HER3 (R&D Systems, #348-RB-050) (human, UniProt P21860 20-643); test: as above
T4 construct: extracellular domain; Bought
Description: as §1

HER2-ECD-Fc [10] = target: T1, HER2-ECD-Fc; test: ELISA on HER2-ECD-Fc; antibody at 5 × 10^-3 µg/mL
HER2-ECD-Fc [11] = target: T1, HER2-ECD-Fc; test: ELISA on HER2-ECD-Fc; antibody at 5 × 10^-1 µg/mL
HER2-ECD DIII Fc = target: T5, HER2-ECD DIII Fc (human, UniProt P04626 342-510, limits assumed); test: ELISA on plate-coated HER2 domain-Fc fusion (1 µg/mL), anti-human IgG-HRP, Abs 450 nm; antibody concentration not given
T5 construct: domain: domain 3; also called domain 3 of the extracellular domains of the HER2 protein; not shown: Hinge and Fc region (CH2-CH3) of human IgG1, at the C-terminus
Experimental: (§2) The HER2-ECD DI Fc, HER2-ECD DII Fc, HER2-ECD DIII Fc, HER2-ECD DIV Fc and HER2-ECD Fc fusion proteins were immobilized at 4° C. overnight onto a Costar 96-well plate (Corning, Cat. No. 3590) at a concentration of 1 μg/mL […]. The resultant was washed 3 times with TBS-T (0.05% Triton X-100) and then blocked at room temperature for 1 hour with 100 μL of TBS-T/BSA (5% BSA). After washing the blocked plate 3 times and adding the anti-HER2 antibody, the antibody was allowed to bind at room temperature for 1 hour. After washing 3 times and then adding anti-human IgG-HRP diluted to 1:3,000 in TBS-T/BSA, as a secondary antibody, the antibody was allowed to bind at room temperature for 1 hour. After washing the resultant 3 times and adding TMB (SurModics, Cat. No. TMBC-1000-01), the mixture was allowed to develop color at room temperature for 5 minutes. Then, the color development was stopped by adding 1 N sulfuric acid (DukSan, Cat. No. 254). Absorbance was measured at 450 nm using Victor X3 (PerkinElmer, Cat. No. 2030-0030).

HER2-ECD DI Fc = target: T6, HER2-ECD DI Fc (human, UniProt P04626 23-217, limits assumed); test: as above
T6 construct: domain: domain 1; also called domain 1 of the extracellular domains of the HER2 protein; not shown: Hinge and Fc region (CH2-CH3) of human IgG1, at the C-terminus
Experimental: as §2

B1: hz8G11 (antibody, V domains shown)
VH: QVQLVQSGQEVKKPGASVKVSCKASGYSFTGYYMHWVRQAPGQGLEWIGHINPNNGGTSYNQKFKGRTTLTVDKSISTAYMELSRLRSDDTAVYYCAREEAFAYWGQGTLVTVSS
VL: DIQMTQSPSSLSASVGDRVTISCRASQDISNYLNWYQQKPGKAPKLLIYYTSRLHSGVPSRFSGSGSGTDFSLTISSLQPEDIATYYCQQGITPPWTFGGGTKVEIK
notes: Humanized antibody, detected with anti-human IgG-HRP; also called humanized 8G11 antibody
Binder B1 has an absorbance (HER2-ECD-Fc [1]) of 2.72, an absorbance (HER2-ECD-Fc [2]) of 0.34 and an absorbance (HER2-ECD-Fc [3]) of 0.14. The absorbance (HER2-ECD-Fc [4]) was 0.12, the absorbance (HER2-ECD-Fc [5]) was 0.12 and the absorbance (HER2-ECD-Fc [6]) was 2.9. The absorbance (HER2-ECD-Fc [7]) was 2.74, the binding result [8] was “no binding” and the binding result (EGFR-ECD-Fc) was “no binding”. The binding result [9] was “no binding”, the absorbance (HER2-ECD-Fc [10]) was 1.67 and the absorbance (HER2-ECD-Fc [11]) was 2.94. B1: no binding (HER2-ECD DIII Fc); no binding (HER2-ECD DI Fc).

Source: patent US20260028418A1 (GC CELL, published 2026)
